The values below come from paper PMC7241785, “Filaggrin and filaggrin 2 processing are linked together through skin aspartic acid protease activation” (PLoS ONE, 2020).

The assay has as its target T1, GST-Flag-SASPase 28 kDa recombinant protein (human, UniProt Q53RT3 85-343).
T1 construct: Skin aspartic acid protease, amino acids 1-259 of SASPase 28, corresponding to amino acids 85-343 of SASPase 37 (Q53RT3); Expression vector pEB9; also called GST-SASPase 28; 28 kDa SASPase; source: E. coli BL21, purified (glutathione resin); not shown: GST, N-terminal, kept; Flag, N-terminal, kept
T1 sequence (looked up): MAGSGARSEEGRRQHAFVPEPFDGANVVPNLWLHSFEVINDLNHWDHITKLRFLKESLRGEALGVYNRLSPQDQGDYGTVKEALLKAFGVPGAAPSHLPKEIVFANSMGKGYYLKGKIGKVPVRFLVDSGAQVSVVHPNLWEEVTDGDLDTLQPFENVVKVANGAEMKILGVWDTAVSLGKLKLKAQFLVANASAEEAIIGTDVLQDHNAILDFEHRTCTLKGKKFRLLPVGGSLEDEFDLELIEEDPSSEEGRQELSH
The experiment in a line: SPR; Biacore T200, 25°C, HBS-EP+; goat anti-GST on CM5 captures GST-Flag-SASPase 28 (1 μM, flow cell 2) and GST (flow cell 1); analyte MBP-HA-FLG2S100 at 0-6 μM, control MBP-HA at 3 and 6 μM; 1:1 Langmuir fit. As to conditions: both partners purified. Background: SPR reads the build-up and loss of mass on a sensor chip optically.

B1: MBP-HA FLG2 S100 (aa 2-95) (domain or fragment, human, UniProt Q5D862 2-95, looked up)
chain: TDLLRSVVTVIDVFYKYTKQDGECGTLSKGELKELLEKELHPVLKNPDDPDTVDVIMHMLDRDHDRRLDFTEFLLMIFKLTMACNKVLSKEYCK
notes: Filaggrin 2, amino acids 2-95 containing the S100 domain; Expression vector pEB7; also called MBP-HA FLG2 (aa 2-95); source: E. coli BL21, purified (amylose resin); not shown: MBP, N-terminal, kept; HA, N-terminal, kept
For the molecule B1, the Kd was found to be 488 nM, the koff was 0.00226 s⁻¹ and the kon was found to be 4630 M⁻¹ s⁻¹.

By Kd is commonly meant the free concentration of one partner at which half of the binding sites on the other are occupied at equilibrium, for simple one-to-one binding. What is called koff is the first-order rate constant of dissociation. As usually defined, the kon is a measure of how fast the partners come together.
